Data: US6689362B1, “Method for treating T-lineage leukemias and lymphomas using a CD7-specific monoclonal antibody (TXU-7) linked to the pokeweed antiviral protein (PAP)” (priority 1997, dated 2004)
“And” between values parts separate entries of the source, which are not always exact repeats. Equal entries are not always repeated. Where two headings read alike, the source gives them in different places.

Legend:
[1] = tested on: ribosomes (nuclease-treated rabbit reticulocyte lysate); assay: Cell-free protein synthesis inhibition assay (rabbit reticulocyte cell-free translation); assay type: biochemical
Method: The ribosome-inhibiting activity of PAP was analyzed in a cell-free translation system obtained in kit form from Promega Biotec, Inc. (Madison, Wis.) and based on a method developed by Pelham and Jackson. Pelham et al., Eur. J. Biochem., 67, 247 (1976). This system consists of the following: nuclease-treated rabbit reticulocyte lysate (35 μL), 1 mM animo acid mixture minus leucine (1 μl), [^3H] leucine (183 Ci/mmol, 1 mCi/mL, Amersham Corp., Arlington Hts, Ill.), 5 μl of brome mosaic virus RNA (2 μL of 0.5 μg/μL stock), and water or buffer to bring the final volume to 50 μL per assay tube. Samples are diluted in PBS and 2.5-5 μL amounts were added to the lysate. Control samples minus toxin were set up in triplicate. At 0 hr (immediately after adding [^3H]-leucine and RNA and mixing gently to start the reaction), 10 μL aliquots were removed from the control and mixed with 1 mL 1 N NaOH to stop the reaction. The control toxin-treated samples were incubated an additional 60 minutes at 37° C., at which time 10 μL samples were again removed to NaOH, mixed, and 50 μL of 30% H2O2 added to decolorize the samples.
Following 10 minutes incubation at 37° C., the tubes were transferred to an ice bath and 2 mL of cold 4% casamino acids followed by 2 mL of cold 50% trichioroacetic acid (TCA) were added to precipitate the synthesized protein. After 30 minutes on ice, the samples were filtered through GF/F glass microfiber filters (Whatman, Hillsboro, Oreg.). The extent of protein synthesis inactivation is determined as percent control response=100 ×([^3H]-leucine incorporation [mean cpm at t60′−mean cpm at t0] for the toxin-treated samples)/([^3H]-leucine incorporation [mean cpm at t60′−mean cpm at t0] for the untreated control).

[2] = tested on: BALB/c mice; assay: Acute toxicity of PAP, single i.v. injection; assay type: in vivo
Method: Female BALB/c mice weighing approximately 20 grams were given a single intravenous injection of purified PAP (Lot #P-1993) via the tail vein. Eight different doses were used ranging from 10 μg to 175 μg and each dose was tested in 5 mice. Mice were monitored for 30 days for morbidity and mortality. […] This non-toxic dose is >90-fold higher than the highest PAP dose that will be given to patients as a TXU-7 antibody conjugate. Deaths were observed only in the groups receiving 150 μg/20 g mouse (=7.5 mg/kg) or higher doses.

B1: PAP: 29 kDa ribosome-inactivating protein from spring leaves of pokeweed (Phytolacca americana) (protein)
chain: VNTIIYNVGSTTISKYATFLNDLRNEAKDPSLKCYGIPMLPNTNTNPKYVLVELQGSNKKTITLMLRRNNLYVMGYSDPFETNKCRYHIFNDISGTERQDVETTLCPNANSRVSKNINFDSRYPTLESKAGVKSRSQVQLGIQILDSNIGKISGVMSFTEKTEAEFLLVAIQMVSEAARFKYIENQVKTNFNRAFNPNPKVLNLQETWGKISTAIHDAKNGVLPKPLELVDASGAKWIVLRVDEIKPDVALLNYVGGSCQTTY
[1]; purified PAP batches (n=6)
  IC (mean SE) value, ribosome inhibitory activity (first IC value): 0.34 ± 0.06 ng/mL
  IC value, ribosome inhibitory activity (second IC value): 3.7±1.1 ng/mL and 130.37 pM
[1]; purified PAP batches (n=6), read-out: IC value, ribosome inhibitory activity (first IC value)
  IC50: 12.2 pM
[1]; range over PAP batches (n=6)
  range of first IC value: 0.17 to 0.58 ng/mL
  range of second IC value: 0.63-7.5 ng/mL and 22-263 pM
[1]; range over PAP batches (n=6), read-out: range of first IC value
  IC50: 6 to 20 pM
[2]; 100 μg/20 g mouse dose
  non-toxic dose relative to highest PAP dose to be given to patients as conjugate: > 90 fold
[2]; 150 μg/20 g mouse dose
  lethal dose relative to highest PAP dose to be given to patients as TXU-7-PAP: > 60 fold
[2]; i.v.
  Acute Toxicity in Mice LD50 (i.v.): LD50 (i.v.) 150 mg/mouse
